Results from patent publication US20050164361A1 (published 2005).
Where no end group is shown, it is not given here.

How the values were obtained:
[1] = target: the molecule itself; experiment: fibril formation kinetics (self-assembly), FIG. 5A
[2] = target: the molecule itself; experiment: self-assembly into a β-sheet bilayer, FIG. 8
[3] = target: the molecule itself; experiment: fibril formation kinetics (self-assembly), FIG. 5B

B1: Aβ(10-21) (amino acid residues 10-21 of SEQ ID NO: 1) (peptide)
peptide: YEVHHQKLVFFA
modifications: not fully specified
notes: Segment of β-amyloid that assembles with itself into fibrils; Many copies stand in the assembly
binding result [1]: binds

B2: Aβ(16-22) (amino acid residues 16-22 of SEQ ID NO: 1), CH3CO-KLVFFAE-NH2 (peptide)
peptide: Ac-KLVFFAE-NH2
modifications: also: self-assembles into β-sheets, nanotubes
notes: Assembles with itself into β-sheets, a rectangular bilayer, helical ribbons and nanotubes
binding result [2]: binds

B3: Aβ(10-21)H13Q (SEQ ID NO: 3) (peptide)
peptide: YEVQHQKLVFFA
notes: Aβ(10-21) with a modified amino acid residue 13 (H13Q)
binding result [3]: binds
